Measurements from patent US20190076445A1 (UNIVERSITY OF CINCINNATI, published 2019).

T1: human FcϵRIα (human, UniProt P12319 26-257)
T1 construct: whole, on cells; also called huFcϵRIα
T1 sequence (looked up): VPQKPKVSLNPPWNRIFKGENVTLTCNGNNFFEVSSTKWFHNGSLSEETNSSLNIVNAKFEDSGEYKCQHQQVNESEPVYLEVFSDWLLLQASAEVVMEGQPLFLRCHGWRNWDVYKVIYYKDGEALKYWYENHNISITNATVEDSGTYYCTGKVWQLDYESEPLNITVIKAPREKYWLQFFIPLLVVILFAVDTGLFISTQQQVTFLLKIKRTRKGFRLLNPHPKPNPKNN


Target: T1, human FcϵRIα
Experiment: summary of Examples 1-7 (huFcϵRIα mice, peritoneal mast cells, flow cytometry)

Row | Binder | binding result
1 | IB10 (antibody, V domains shown, mAb from a hybridoma (ATCC PTA-125116); also called anti-FcϵRIα monoclonal antibody IB10; anti-huFcϵRIα mAb) VH: QVQLQQPGAELVRPGASVKLSCKASGYSFTSYWMNWVNQRPGQGLEWIGMIHPSDSETRLNPNFKDRATLTVDKSSSTAYMQLSSPTSEDSAVYYCARGSLYDGYLFLYWGQGTLVTVSA VL: DIVMTQSPLSLPVSLGDQASISCRSSQSILHSNGDTYLEWYLQKPGQSPKLLIYKVSNRFSGVPDRFSGSGSGTDFTLKISRVEAEDLGVYYCFQGSYVPFTFGSGTKLEIKR | binds
2 | IE7 (antibody, mouse IgG1, V domains shown, Mouse IgG1 mAb from a hybridoma (ATCC PTA-125115); also called anti-FcϵRIα monoclonal antibody IE7; anti-huFcϵRIα mAb) VH: QVQLQESGGDVVKPGGSLKLSCAASGFTFSFYGMSWVRQTPDKKLEWVATISGGGNYTYYPDSVKGRFTISRDNAMNTLYLQMNSLKSEDTAMYYCVRAYYGNWNSYWGQGTLVTVS VL: DIVMTQTPSSMYASLGERVTITCKASQDINNYLSWFQQKPGRSPKTLIYRANRLMDGVPSRIRGSGSGQDYSLTISSLEYEDMGIYYCLLYNEFPWMFGGGTKLEIKR | binds
